Assay results from CN113480658A (SHENZHEN INNOVA NANOBODI CO LTD, dated 2021).
Positions count from the first letter of the chain named.

B1: 纳米抗体1G8 (VHH)
VHH: QVQLQESGGGLAQTGGSLRLSCVASGRTLDRYAIGWFRQAPGKEREFVAAISMSGTMTDYTDSVKGRFTISRDNAKNTVYLQMNSLKPDDTAVYCCAAGGRRGWGRALFAYDYWGQGTQVTVSS
B2: 纳米抗体1D9 (抗HE4单价纳米抗体) (VHH)
VHH: B1 VHH with A12V, T14P, V23A, R27P, T28R, L29F, D30S, R31S, A33G, I34M
notes: CDR1 26-33, CDR2 51-58, CDR3 97-113); Expressed in E. coli from pMES4 and purified
B3: 抗HE4二价纳米抗体1D9-LHC (VHH)
VHH: B1 VHH with A12V, T14P, V23A, R27P, T28R, L29F, D30S, R31S, A33G, I34M

Tests used:
人附睾蛋白(HE4) [1] = molecular target: T1, 人附睾蛋白(HE4) (human, UniProt Q14508 31-124); assay: additive ELISA on HE4, 1G8 alone
T1 construct: also called HE4抗原; 抗原
T1 sequence (looked up): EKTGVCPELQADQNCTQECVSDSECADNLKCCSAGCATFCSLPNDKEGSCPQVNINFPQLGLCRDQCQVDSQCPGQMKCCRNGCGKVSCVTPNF

人附睾蛋白(HE4) [2] = molecular target: T1, 人附睾蛋白(HE4); assay: additive ELISA on HE4, 1D9 alone
人附睾蛋白(HE4) [3] = molecular target: T1, 人附睾蛋白(HE4); assay: SPR, Biacore T100, 1:1 binding fit

Binder | ELISA reading (2nd抗体) (人附睾蛋白(HE4) [1]) | ELISA reading (1st抗体) (人附睾蛋白(HE4) [2]) | Kd (人附睾蛋白(HE4) [3])
B1 | 0.481 | – | –
B2 | – | 0.286 | 11.9 pM
B3 | – | – | 6.9 pM
